Data on eight molecules can be found in paper PMC11933844, “Autosuppression of MdNAC18.1 endowed by a 61‐bp promoter fragment duplication delays maturity date in apple”.

One series deals with MdNAC18.1 (UniProt A0A498K6T8 1-364). Kind of series: EMSA; Beyotime Chemiluminescent EMSA Kit GS009; buffer, salt, pH and temperature not stated. The note with it: protein: recombinant, tags: His (pET32A), chain copies: 2, blunt. Background: In EMSA bound probe runs differently from free probe, usually more slowly.
The target of a further series is T1, MdNAC72 (UniProt A0A498KB81 69-407).
T1 sequence: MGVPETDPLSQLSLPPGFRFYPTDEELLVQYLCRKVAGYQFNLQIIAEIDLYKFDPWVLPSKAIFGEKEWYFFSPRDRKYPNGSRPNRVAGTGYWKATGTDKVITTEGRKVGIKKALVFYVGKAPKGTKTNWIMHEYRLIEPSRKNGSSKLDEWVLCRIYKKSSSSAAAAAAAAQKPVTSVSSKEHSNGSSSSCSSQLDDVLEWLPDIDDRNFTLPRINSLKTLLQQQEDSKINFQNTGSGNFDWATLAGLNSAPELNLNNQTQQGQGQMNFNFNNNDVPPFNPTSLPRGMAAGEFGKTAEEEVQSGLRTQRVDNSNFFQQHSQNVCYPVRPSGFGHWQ
The series is described as above. As to conditions: protein: recombinant; tags: His (pET32A); chain copies: 2; label: 3' biotin; blunt.

MdNAC18.1, sequence (A0A498K6T8 entry or part of it): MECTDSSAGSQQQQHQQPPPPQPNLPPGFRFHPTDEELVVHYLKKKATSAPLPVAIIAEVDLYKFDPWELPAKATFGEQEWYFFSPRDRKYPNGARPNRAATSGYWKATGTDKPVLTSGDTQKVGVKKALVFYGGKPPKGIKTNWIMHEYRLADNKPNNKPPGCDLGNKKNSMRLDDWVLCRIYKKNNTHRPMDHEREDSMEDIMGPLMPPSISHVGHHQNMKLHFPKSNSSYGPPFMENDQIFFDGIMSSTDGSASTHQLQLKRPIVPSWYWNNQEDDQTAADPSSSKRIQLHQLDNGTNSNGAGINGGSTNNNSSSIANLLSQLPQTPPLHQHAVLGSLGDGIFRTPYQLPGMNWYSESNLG

B1: MdNAC18.1 P promoter probe (CTAAC) (dsDNA)
DNA 1: GACATACAATGTTCTGATTCGTATTCTAACACTTAA
DNA 2: TTAAGTGTTAGAATACGAATCAGAACATTGTATGTC
With B1, in the series with MdNAC18.1 (label: 3' biotin), the binding result was “binds”.

B2: MdMYC2 promoter probe NACBS1 (dsDNA)
DNA 1: TCTGGGATCCTGGTTTCACGGGTTTTCGAGGTTTTC
DNA 2: GAAAACCTCGAAAACCCGTGAAACCAGGATCCCAGA
Regarding B2, in the series with MdNAC18.1, the binding result is “binds”.

B3: MdACS1 promoter probe NACBS5 (dsDNA)
DNA 1: GTACACTTATAATCCCCACGCAAGTTTGTAGGTAAT
DNA 2: ATTACCTACAAACTTGCGTGGGGATTATAAGTGTAC
As to B3, the binding result in the series with MdNAC18.1 (label: 3' biotin) is “binds”.

B4: MdACO1-like promoter probe NACBS1 (dsDNA)
DNA 1: TCAAGTACCATAACTACACGTAACTTGCAAAGTTCC
DNA 2: GGAACTTTGCAAGTTACGTGTAGTTATGGTACTTGA
Consider B4, for which the binding result with MdNAC72 and in the series with MdNAC18.1 (label: 3' biotin) was “binds” throughout.

B5: MdACO1-like promoter probe mutant (dsDNA)
DNA 1: TCAAGTACCATAACAAAAAATAACTTGCAAAGTTCC
DNA 2: GGAACTTTGCAAGTTATTTTTTGTTATGGTACTTGA
For the molecule B5, the binding result in the series with MdNAC18.1 is listed as “no binding”.

B6: MdACS1 promoter probe mutant (dsDNA)
DNA 1: GTACACTTATAATAAAAAAACAAGTTTGTAGGTAAT
DNA 2: ATTACCTACAAACTTGTTTTTTTATTATAAGTGTAC
Regarding B6, the binding result with MdNAC18.1 is “no binding”.

B7: MdNAC72 promoter probe NACBS1 (dsDNA)
DNA 1: TATTGACCCACATTTGCACGTAGCCTTGTAAACTTG
DNA 2: CAAGTTTACAAGGCTACGTGCAAATGTGGGTCAATA
Turning to B7, the binding result with MdNAC18.1 (label: 3' biotin) is given as “binds”.

B8: MdNAC18.1 P promoter probe mutant (dsDNA)
DNA 1: GACATACAATGTTCTGATTCGTATGAGATAACTTAA
DNA 2: TTAAGTTATCTCATACGAATCAGAACATTGTATGTC
For the molecule B8, the binding result with MdNAC18.1 was “no binding”.
